Source: publication doi:10.1101/815886 (bioRxiv, 2019)
Each block holds one binder with its values, some of them ahead of it.

B1: human CTC1 (subunit of the purified recombinant CST complex) (natural protein)
chain: MAAGRAQVPSSEQAWLEDAQVFIQKTLCPAVKEPNVQLTPLVIDCVKTVWLSQGRNQGSTLPLSYSFVSVQDLKTHQRLPCCSHLSWSSSAYQAWAQEAGPNGNPLPREQLLLLGTLTDLSADLEQECRNGSLYVRDNTGVLSCELIDLDLSWLGHLFLFPRWSYLPPARWNSSGEGHLELWDAPVPVFPLTISPGPVTPIPVLYPESASCLLRLRNKLRGVQRNLAGSLVRLSALVKSKQKAYFILSLGRSHPAVTHVSIIVQVPAQLVWHRALRPGTAYVLTELRVSKIRGQRQHVWMTSQSSRLLLLKPECVQELELELEGPLLEADPKPLPMPSNSEDKKDPESLVRYSRLLSYSGAVTGVLNEPAGLYELDGQLGLCLAYQQFRGLRRVMRPGVCLQLQDVHLLQSVGGGTRRPVLAPCLRGAVLLQSFSRQKPGAHSSRQAYGASLYEQLVWERQLGLPLYLWATKALEELACKLCPHVLRHHQFLQHSSPGSPSLGLQLLAPTLDLLAPPGSPVRNAHNEILEEPHHCPLQKYTRLQTPSSFPTLATLKEEGQRKAWASFDPKALLPLPEASYLPSCQLNRRLAWSWLCLLPSAFCPAQVLLGVLVASSHKGCLQLRDQSGSLPCLLLAKHSQPLSDPRLIGCLVRAERFQLIVERDVRSSFPSWKELSMPGFIQKQQARVYVQFFLADALILPVPRPCLHSATPSTPQTDPTGPEGPHLGQSRLFLLCHKEALMKRNFCVPPGASPEVPKPALSFYVLGSWLGGTQRKEGTGWGLPEPQGNDDNDQKVHLIFFGSSVRWFEFLHPGQVYRLIAPGPATPMLFEKDGSSCISRRPLELAGCASCLTVQDNWTLELESSQDIQDVLDANKSLPESSLTDLLSDNFTDSLVSFSAEILSRTLCEPLVASLWMKLGNTGAMRRCVKLTVALETAECEFPPHLDVYIEDPHLPPSLGLLPGARVHFSQLEKRVSRSHNVYCCFRSSTYVQVLSFPPETTISIPLPHIYLAELLQGGQSPFQATASCHIVSVFSLQLFWVCAYCTSICRQGKCTRLGSTCPTQTAISQAIIRLLVEDGTAEAVVTCRNHHVAAALGLCPREWASLLDFVQVPGRVVLQFAGPGAQLESSARVDEPMTMFLWTLCTSPSVLRPIVLSFELERKPSKIVPLEPPRLQRFQCGELPFLTHVNPRLRLSCLSIRESEYSSSLGILASSC
B2: human STN1 (subunit of the purified recombinant CST complex) (natural protein)
chain: MQPGSSRCEEETPSLLWGLDPVFLAFAKLYIRDILDMKESRQVPGVFLYNGHPIKQVDVLGTVIGVRERDAFYSYGVDDSTGVINCICWKKLNTESVSAAPSAARELSLTSQLKKLQETIEQKTKIEIGDTIRVRGSIRTYREEREIHATTYYKVDDPVWNIQIARMLELPTIYRKVYDQPFHSSALEKEEALSNPGALDLPSLTSLLSEKAKEFLMENRVQSFYQQELEMVESLLSLANQPVIHSASSDQVNFKKDTTSKAIHSIFKNAIQLLQEKGLVFQKDDGFDNLYYVTREDKDLHRKIHRIIQQDCQKPNHMEKGCHFLHILACARLSIRPGLSEAVLQQVLELLEDQSDIVSTMEHYYTAF

Columns and labels:
Assay in all cases: cryo-EM structure
[1] = target: the molecule itself
[2] = target: B1
[3] = target: B2

Binder: B1
binding result [1]: binds

Binder: B2
stoichiometry N [2]: 1

binding result [2]: binds
stoichiometry N [3]: 1
B3: human TEN1 (subunit of the purified recombinant CST complex) (natural protein)
chain: MMLPKPGTYYLPWEVSAGQVPDGSTLRTFGRLCLYDMIQSRVTLMAQHGSDQHQVLVCTKLVEPFHAQVGSLYIVLGELQHQQDRGSVVKARVLTCVEGMNLPLLEQAIREQRLYKQERGGSQ
